Experimental data: the supplement of paper PMC10126150
± gives the standard deviation of the averaged measurements.

Tested on: ATP
Assay: switch fluorescence ratio, 500 uM ATP over buffer (Cy3 cluster intensity, sum of 5 cycles each) (fold (ratio)); higher = stronger signal-on switching upon ATP binding; sequences stand for … in TCGTCGGCAGCGTCAGATGTGTATAAGAGACAGTTTTTTTTTTTTTTTTTTTTTTTTT…TC
Settings: aptamer strand: ATP DNA aptamer (quencher-CACCTGGGGGAGTATTGCGGAGGAAGG + anchor), 100 nM annealed; ATP concentration: 500 uM
Procedure, shortened: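 For every switch-domain sequence, the fluorescence ratio is the mean of per-cluster values, each being summed target-cycle Cy3 intensity over summed buffer-cycle Cy3 intensity. Clusters outside 100-1000 RFU were excluded. On a modified Illumina MiSeq flow-cell, the Cy3-labelled switching-strand clusters were annealed to 100 nM quencher-labelled ATP aptamer, imaged in selection buffer and then after 15 min with 500 uM ATP at 22 °C. Five such cycles were run, with NaOH stripping and re-annealing between them.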
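Also: ATP exposure 15 min at 22 °C before imaging.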

Sequence	switch fluorescence ratio
GCGGTATGCT	0.9517 ± 0.0058
GCGGTATTCT	1.001 ± 0.0042
GCGGTCAGCT	0.99 ± 0.087
GCGGTGCTTG	0.9901 ± 0.0071
GCGGTGGGGG	1.03 ± 0.03
GCGGTTGTCC	1.0001 ± 0.00078
GCGGTTTAAG	1 ± 0.013
GCGGTTTCGT	0.983 ± 0.012
GCGGTTTGAG	0.933 ± 0.012
GCGTAATATG	1.16 ± 0.068
GCGTAATGGG	0.975 ± 0.02
GCGTACGTAG	0.998 ± 0.019
GCGTAGGTAG	0.964 ± 0.038
GCGTAGGTGT	1.09 ± 0.033
GCGTATCGGA	1.01 ± 0.043
GCGTATGAGA	1.02 ± 0.013
GCGTATTTGC	1.033 ± 0.01
GCGTCAAGAG	1.24 ± 0.046
GCGTCAGCGG	0.981 ± 0.02
GCGTCGAACA	0.999 ± 0.068
GCGTCGTCGG	1.01 ± 0.036
GCGTCTTTAC	1.13 ± 0.024
GCGTGAAGTA	0.997 ± 0.012
GCGTGAGGTG	1.01 ± 0.048
GCGTGAGTTG	0.9783 ± 0.0085

Sequence	switch fluorescence ratio
GCGTGCAGGG	1.01 ± 0.025
GCGTGCATCC	1.03 ± 0.053
GCGTGTGGGC	1.071 ± 0.0066
GCGTGTTTTT	1.04 ± 0.013
GCGTTCGGCC	1.01 ± 0.016
GCGTTGGGTC	1.02 ± 0.014
GCGTTGGTCG	0.929 ± 0.0014
GCGTTTACTT	1.004 ± 0.0016
GCGTTTTCGG	1.02 ± 0.039
GCTAAAACAT	1.0086 ± 0.00063
GCTAAAGGCA	0.986 ± 0.043
GCTAAAGTTC	1.01 ± 0.0014
GCTAAATCGG	1.027 ± 0.0082
GCTAACACTT	1.02 ± 0.013
GCTAATTTGC	0.98953 ± 0.00037
GCTACAGCTT	1.02 ± 0.015
GCTACCTTTG	1.01 ± 0.014
GCTACGGGTA	1.08 ± 0.031
GCTACTCGAA	1.06 ± 0.02
GCTAGAAGCG	1.001 ± 0.0099
GCTAGAAGGT	1.01 ± 0.03
GCTAGATTTA	0.987 ± 0.021
GCTAGCCAAG	1.04 ± 0.053
GCTAGCCATT	0.978 ± 0.029
GCTAGGGGGG	1 ± 0.04

Sequence	switch fluorescence ratio
GCTAGGGGGT	1.02 ± 0.09
GCTAGGGGTT	1.13 ± 0.25
GCTAGGTCTA	1.01 ± 0.034
GCTAGTAGTC	1.01 ± 0.046
GCTAGTTATG	1.04 ± 0.1
GCTATACGAT	2.17 ± 0.18
GCTATACGTA	1.22 ± 0.049
GCTATAGACT	1.02 ± 0.067
GCTATAGGGA	0.957 ± 0.014
GCTATATTTG	1.01 ± 0.013
GCTATGGAGC	1.06 ± 0.079
GCTATGGGGA	1.02 ± 0.02
GCTATTAAGT	0.9695 ± 0.003
GCTATTAGTT	1.04 ± 0.017
GCTATTATTA	0.974 ± 0.045
GCTATTGATC	1.02 ± 0.021
GCTATTGCGG	1.028 ± 0.0042
GCTATTGGCA	1.014 ± 0.01
GCTATTTGCG	1 ± 0.022
GCTATTTTTC	1 ± 0.042
GCTCAATTGA	1.004 ± 0.01
GCTCACTGTG	1.037 ± 0.0034
GCTCAGGCTG	1.02 ± 0.024
GCTCAGTTTG	0.992 ± 0.013
GCTCATGGTT	1.03 ± 0.046

Sequence	switch fluorescence ratio
GCTCCATCGA	1.11 ± 0.015
GCTCCTAGCT	1.07 ± 0.028
GCTCGACCCT	1.07 ± 0.039
GCTCGCGTGG	0.956 ± 0.025
GCTCGGGGTT	1.01 ± 0.011
GCTCGTAACT	1 ± 0.0065
GCTCGTAGGC	0.99 ± 0.054
GCTCTAGGGA	0.984 ± 0.043
GCTCTCAGGT	1.12 ± 0.043
GCTCTCGGTG	1.01 ± 0.017
GCTCTGTTGG	1.01 ± 0.048
GCTCTTAAGG	0.982 ± 0.051
GCTGAAATTT	1.01 ± 0.056
GCTGAAGGAT	1 ± 0.0058
GCTGAATTGG	1.04 ± 0.053
GCTGACATTC	0.992 ± 0.04
GCTGACGTTA	1.1 ± 0.011
GCTGAGAGGC	1 ± 0.038
GCTGAGGATG	0.9799 ± 0.0058
GCTGAGGCTT	0.9593 ± 0.0019
GCTGATGACT	0.9918 ± 0.0063
GCTGATGGGC	1.05 ± 0.044
GCTGATGTAT	0.999 ± 0.026
GCTGCAAGGG	1.07 ± 0.063
GCTGCAGGGC	1.37 ± 0.44

Sequence	switch fluorescence ratio
GCTGCGCATT	1.94 ± 0.028
GCTGCGGGCC	1.02 ± 0.033
GCTGCGGGGT	0.993 ± 0.045
GCTGCTGGGT	1.01 ± 0.032
GCTGGAGGAA	1.07 ± 0.018
GCTGGATCCG	1.07 ± 0.11
GCTGGCCGGT	0.989 ± 0.021
GCTGGCTCGT	1.01 ± 0.013
GCTGGGAGGT	0.984 ± 0.02
GCTGGGCTTG	0.9947 ± 0.0033
GCTGGGGAAG	1.02 ± 0.019
GCTGGGGATA	1.03 ± 0.032
GCTGGGGCGG	0.98 ± 0.029
GCTGGGGGGA	0.981 ± 0.033
GCTGGGGTAT	0.984 ± 0.015
GCTGGGGTGG	1.01 ± 0.05
GCTGGTAATG	1.01 ± 0.021
GCTGGTTTGG	0.972 ± 0.052
GCTGGTTTGT	0.989 ± 0.013
GCTGTAAAAA	1.08 ± 0.063
GCTGTAAATT	0.982 ± 0.019
GCTGTAATAT	1.11 ± 0.015
GCTGTAGCGC	1.06 ± 0.035
GCTGTAGGAT	0.984 ± 0.017
GCTGTAGGTC	1.04 ± 0.013

Sequence	switch fluorescence ratio
GCTGTTAATG	0.984 ± 0.006
GCTGTTTGAT	0.959 ± 0.04
GCTGTTTGCT	1.01 ± 0.034
GCTGTTTTGG	0.965 ± 0.027
GCTGTTTTTA	0.981 ± 0.022
GCTTAAATTT	1 ± 0.016
GCTTACGGTG	1.01 ± 0.02
GCTTAGTGTC	0.975 ± 0.043
GCTTATAATG	0.997 ± 0.031
GCTTATACGA	1.55 ± 0.012
GCTTATCTAA	0.997 ± 0.016
GCTTATGCGG	0.949 ± 0.014
GCTTATGTAC	1.16 ± 0.019
GCTTCAGGGA	1.02 ± 0.019
GCTTCAGGTC	1.05 ± 0.074
GCTTCCTAAG	1.139 ± 0.0072
GCTTCCTCTA	1.74 ± 1
GCTTCGGAGG	1.015 ± 0.0024
GCTTCGGAGT	1.059 ± 0.01
GCTTCGGATC	1.22 ± 0.038
GCTTCTCTTA	0.974 ± 0.013
GCTTCTGGGT	0.996 ± 0.017
GCTTCTTGTT	1 ± 0.015
GCTTCTTTGT	0.9984 ± 0.0058
GCTTGAGGAA	0.982 ± 0.034

Sequence	switch fluorescence ratio
GCTTGAGGTA	1.02 ± 0.054
GCTTGAGTTA	0.9852 ± 0.0077
GCTTGATCCA	1.01 ± 0.018
GCTTGCAAAG	1.007 ± 0.0031
GCTTGCAAGG	0.991 ± 0.017
GCTTGCATTT	1.02 ± 0.035
GCTTGGATGT	1.0207 ± 0.00092
GCTTGGGCAG	1.02 ± 0.045
GCTTGGGGGA	0.998 ± 0.041
GCTTGGTCGT	1.03 ± 0.024
GCTTGTGATC	1.01 ± 0.028
GCTTTAAGGG	0.995 ± 0.024
GCTTTAATAA	0.991 ± 0.077
GCTTTACAGA	1 ± 0.016
GCTTTACTCA	1.36 ± 0.049
GCTTTAGGAT	1.01 ± 0.04
GCTTTAGTCA	0.967 ± 0.034
GCTTTATGTT	0.9938 ± 0.0015
GCTTTATTCC	1.06 ± 0.018
GCTTTGGCTT	1 ± 0.03
GCTTTGTATG	0.9678 ± 0.0094
GCTTTTAAAG	1.04 ± 0.02
GCTTTTATCA	0.978 ± 0.01
GCTTTTCAGC	1.01 ± 0.038
GCTTTTCGGG	1.02 ± 0.02

Sequence	switch fluorescence ratio
GCTTTTGAGG	1.04 ± 0.012
GCTTTTGGTG	1.02 ± 0.032
GCTTTTTATA	1.02 ± 0.027
GCTTTTTGCG	1.01 ± 0.03
GGAAAAAATG	1 ± 0.048
GGAAAACTGG	1.01 ± 0.0017
GGAAAAGTTG	0.9848 ± 0.0083
GGAAAATAGT	1.02 ± 0.047
GGAAAATTCT	1.01 ± 0.013
GGAAACTCTC	1 ± 0.015
GGAAAGGGGG	1.01 ± 0.064
GGAAAGTACG	1.16 ± 0.045
GGAAATATTA	1.04 ± 0.04
GGAAATTGAG	0.999 ± 0.021
GGAACCGGGT	1.029 ± 0.0086
GGAAGAGGGG	0.991 ± 0.016
GGAAGAGGGT	0.997 ± 0.052
GGAAGATGTT	0.985 ± 0.014
GGAAGCGACA	0.988 ± 0.037
GGAAGGAGGG	1 ± 0.033
GGAAGGCATA	0.9829 ± 0.0096
GGAAGGCCTA	0.954 ± 0.017
GGAAGGGATT	1.05 ± 0.08
GGAAGGGCGG	1.01 ± 0.048
GGAAGTAAAA	1.03 ± 0.076
